{"source": "the RNAGym collection of RNA variant scans (doi:10.7554/elife.80360)", "parents": {"B1": {"name": "Twister Ribozyme (parent)", "chain": "AACACUGCCAAUGCCGGUCCCAAGCCCGGAUAAAAGUGGAGGGGGCGG"}}, "data": [{"variants_of": "B1", "assay": "self-cleavage, relative activity (ratio to wild type); higher = more cleavage; co-transcriptional", "values": [{"variant": "CACACUGUCAAUGCCGGUCCCAAGCCCGGAUAAAAGUGGAGGGGGCGG", "self-cleavage": 0.193}, {"variant": "CACACUGCCAAUGCCGGUCCCAAGCCCGGAUAAAAGUGGUGGGGGCGG", "self-cleavage": 0.11}, {"variant": "CACACUGCCAAUGCCGGUCCCAAGCCCGGAUAAAAGGGGAGGGGGCGG", "self-cleavage": 0.262}, {"variant": "CACACUGCCAAUGCCGGUCCCAAGCCCGGAUAAAAGCGGAGGGGGCGG", "self-cleavage": 0.174}, {"variant": "GACACUGUCAAUGCCGGUCCCAAGCCCGGAUAAAAGUGGAGGGGGCGG", "self-cleavage": 0.245}, {"variant": "GACACUGGCAAUGCCGGUCCCAAGCCCGGAUAAAAGUGGAGGGGGCGG", "self-cleavage": 0.262}, {"variant": "CACACUGCCAAUGCCGGUCCCAAGCCAGGAUAAAAGUGGAGGGGGCGG", "self-cleavage": 0.192}, {"variant": "CACACUGCCAGUGCCGGUCCCAAGCCCGGAUAAAAGUGGAGGGGGCGG", "self-cleavage": 0.218}, {"variant": "CACACUGCCACUGCCGGUCCCAAGCCCGGAUAAAAGUGGAGGGGGCGG", "self-cleavage": 0.145}, {"variant": "GACACUGCCAAUGCCGGUCCCAAGCCCGGAUAAAAGUGGAGGGGGGGG", "self-cleavage": 0.428}, {"variant": "GACACUGCCAAUGCCGGUCCCAAGCCCGGAUAAAAGUGGAGGGGGAGG", "self-cleavage": 0.412}, {"variant": "GACACUGCCAAUCCCGGUCCCAAGCCCGGAUAAAAGUGGAGGGGGCGG", "self-cleavage": 0.223}, {"variant": "GACACUGCCAAUUCCGGUCCCAAGCCCGGAUAAAAGUGGAGGGGGCGG", "self-cleavage": 0.129}, {"variant": "CACACUGCCAAUGCCGGUCCCAAGCCCGGAUAAAUGUGGAGGGGGCGG", "self-cleavage": 0.129}, {"variant": "CACACUGCCAAUGCCGGUCCCAAGCCCGGAUAAACGUGGAGGGGGCGG", "self-cleavage": 0.161}, {"variant": "CACACUGCCAAUGCCGGUCCCAAGCCCGGAUAAAGGUGGAGGGGGCGG", "self-cleavage": 0.186}, {"variant": "GACACUGCCAAUGCCGGUCCAAAGCCCGGAUAAAAGUGGAGGGGGCGG", "self-cleavage": 0.157}, {"variant": "GACACUGCCAAUGCCGGUCCCAAGUCCGGAUAAAAGUGGAGGGGGCGG", "self-cleavage": 0.222}, {"variant": "GACACUGCCAAUGCCGGUCACAAGCCCGGAUAAAAGUGGAGGGGGCGG", "self-cleavage": 0.273}, {"variant": "GACACUGCCAAUGCCGGUCUCAAGCCCGGAUAAAAGUGGAGGGGGCGG", "self-cleavage": 0.35}, {"variant": "CACACUGCCAAUGCCGGUCCCAAGCCCGGAUAAAAGUGUAGGGGGCGG", "self-cleavage": 0.129}, {"variant": "CACACUGCCAAUGCAGGUCCCAAGCCCGGAUAAAAGUGGAGGGGGCGG", "self-cleavage": 0.179}, {"variant": "CACACUGCCAAUGCUGGUCCCAAGCCCGGAUAAAAGUGGAGGGGGCGG", "self-cleavage": 0.153}, {"variant": "CACACUGCCAAUGCCGGUCCCAAGCCCGGAUAACAGUGGAGGGGGCGG", "self-cleavage": 0.214}, {"variant": "GACACUGCCAAUGCCGGUCCCAAGCCCGGAUACAAGUGGAGGGGGCGG", "self-cleavage": 0.462}, {"variant": "CACACUCCCAAUGCCGGUCCCAAGCCCGGAUAAAAGUGGAGGGGGCGG", "self-cleavage": 0.121}, {"variant": "CACACUACCAAUGCCGGUCCCAAGCCCGGAUAAAAGUGGAGGGGGCGG", "self-cleavage": 0.155}, {"variant": "CACACUGCGAAUGCCGGUCCCAAGCCCGGAUAAAAGUGGAGGGGGCGG", "self-cleavage": 0.23}, {"variant": "CACACUGCCAAUGCCGGUCCCAAGCCCGGAUAAAAGUAGAGGGGGCGG", "self-cleavage": 0.189}, {"variant": "CACACUGCCAAUGCCGGUCCCAAGCCCGGAUAAAAGUCGAGGGGGCGG", "self-cleavage": 0.22}, {"variant": "CACACUGCCAAUGCCGGUCCCAAGCCCGGAUAAAACUGGAGGGGGCGG", "self-cleavage": 0.159}, {"variant": "GACACUGCCAAUGCCGGUCCCUAGCCCGGAUAAAAGUGGAGGGGGCGG", "self-cleavage": 0.255}, {"variant": "GACACUGCCAAUGCCGGUCCCGAGCCCGGAUAAAAGUGGAGGGGGCGG", "self-cleavage": 0.165}, {"variant": "GACACUGCCAAUGCCGGUACCAAGCCCGGAUAAAAGUGGAGGGGGCGG", "self-cleavage": 0.247}, {"variant": "GACACUGCCUAUGCCGGUCCCAAGCCCGGAUAAAAGUGGAGGGGGCGG", "self-cleavage": 0.428}, {"variant": "GACACUGCCGAUGCCGGUCCCAAGCCCGGAUAAAAGUGGAGGGGGCGG", "self-cleavage": 0.438}, {"variant": "CACACUGCCAAUGCCGGUCCCAAGCCCGGAUAUAAGUGGAGGGGGCGG", "self-cleavage": 0.268}, {"variant": "CACACUGCCCAUGCCGGUCCCAAGCCCGGAUAAAAGUGGAGGGGGCGG", "self-cleavage": 0.0756}, {"variant": "CACACUGCCAAUGCCGGUCCCAAGCCCGAAUAAAAGUGGAGGGGGCGG", "self-cleavage": 0.184}, {"variant": "CACACUGCCAAUGCCGGUCCCAAGCCCGUAUAAAAGUGGAGGGGGCGG", "self-cleavage": 0.215}, {"variant": "CACACUGCCAAUGCCGGUCCCAAGCCCGCAUAAAAGUGGAGGGGGCGG", "self-cleavage": 0.231}, {"variant": "CACACUGCCAAUGCCGGUCUCAAGCCCGGAUAAAAGUGGAGGGGGCGG", "self-cleavage": 0.187}, {"variant": "CACACUGCCAAUGCCGGUCGCAAGCCCGGAUAAAAGUGGAGGGGGCGG", "self-cleavage": 0.0894}, {"variant": "GACACUGCCACUGCCGGUCCCAAGCCCGGAUAAAAGUGGAGGGGGCGG", "self-cleavage": 0.349}, {"variant": "GACACUGCCAGUGCCGGUCCCAAGCCCGGAUAAAAGUGGAGGGGGCGG", "self-cleavage": 0.414}, {"variant": "GACACUGCAAAUGCCGGUCCCAAGCCCGGAUAAAAGUGGAGGGGGCGG", "self-cleavage": 0.226}, {"variant": "CACACUGCCAAUGCCGGUCCCAAGCCCGGAUAAAAGUGGAGGGGACGG", "self-cleavage": 0.184}, {"variant": "CACACUGCCAAUGCCGGUCCCAAGCCCGGAUAAAAGUGGAGGGGCCGG", "self-cleavage": 0.176}, {"variant": "CACACUGCCAAUGCCGGUCCCAAGCCCGGAUAAAAGUGGAGGGGUCGG", "self-cleavage": 0.22}, {"variant": "GACGCUGCCAAUGCCGGUCCCAAGCCCGGAUAAAAGUGGAGGGGGCGG", "self-cleavage": 0.237}, {"variant": "CACGCUGCCAAUGCCGGUCCCAAGCCCGGAUAAAAGUGGAGGGGGCGG", "self-cleavage": 0.131}, {"variant": "CACCCUGCCAAUGCCGGUCCCAAGCCCGGAUAAAAGUGGAGGGGGCGG", "self-cleavage": 0.171}, {"variant": "CACACUGCCAAUGCCGGUCCCAAGCCCGGAUAAAAGUGGAGGGGGUGG", "self-cleavage": 0.18}, {"variant": "CACACUGCCAAUGCCGGUCCCAAGCCCGGAUAAAAGUGGAGGGGGGGG", "self-cleavage": 0.181}]}]}
